# Values of other authors as cited in PMC13200438 (Journal of Nanobiotechnology, 2026).
# Settings: oral semaglutide (Rybelsus)
substance,measurement,value
semaglutide,oral (absolute) bioavailability,< 2%
